Here are results for five substances from patent publication US20050026834A1.

In this test the target is T1, rabbit GH receptor (rabbit) (UniProt P19941).
T1 sequence (looked up): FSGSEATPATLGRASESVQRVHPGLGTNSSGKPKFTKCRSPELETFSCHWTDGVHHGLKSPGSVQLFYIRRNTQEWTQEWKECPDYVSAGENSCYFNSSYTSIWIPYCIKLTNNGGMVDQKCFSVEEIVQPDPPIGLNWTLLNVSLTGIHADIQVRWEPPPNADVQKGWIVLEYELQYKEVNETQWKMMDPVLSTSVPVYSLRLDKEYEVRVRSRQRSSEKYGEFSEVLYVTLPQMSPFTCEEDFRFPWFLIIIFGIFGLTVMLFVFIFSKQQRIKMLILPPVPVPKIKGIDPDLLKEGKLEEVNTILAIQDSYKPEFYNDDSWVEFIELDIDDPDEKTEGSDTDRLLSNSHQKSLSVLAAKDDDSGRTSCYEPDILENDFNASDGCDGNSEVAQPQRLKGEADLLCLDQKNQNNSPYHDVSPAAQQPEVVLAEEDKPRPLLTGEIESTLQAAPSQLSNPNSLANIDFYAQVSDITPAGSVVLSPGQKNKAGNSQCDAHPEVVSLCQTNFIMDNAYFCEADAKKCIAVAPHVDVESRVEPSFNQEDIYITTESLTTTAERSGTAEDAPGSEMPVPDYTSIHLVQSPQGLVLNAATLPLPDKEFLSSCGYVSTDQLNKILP
Kind of test: cell-based or functional assay.

Values joined by “and” are separate entries in the source; they are usually repeats but may differ in a detail not shown here. Identical values can stand only once.

In the case of “PEG-S144C hGH (mono-PEGylated S144C) (from UniProt P01241 27-217) (ligand)”, the EC50 of single experiments, cell proliferation assay (Example 1) is 40 ng/mL and 45 ng/mL.

“hGH cysteine mutein S144C (from UniProt P01241 27-217) (ligand)”: the Mean EC50 (ng/ml), proliferation of GH-R4 cells (MTS) was determined as 1.6 ng/mL.

As to “hGH cysteine mutein T3C, disulfide-linked homodimer (from UniProt P01241 27-217) (ligand)”, the Mean EC50 (ng/ml), proliferation of GH-R4 cells (MTS) turned out to be 1.4 ng/mL.

As to “hGH cysteine mutein T148C (from UniProt P01241 27-217) (ligand)”, the Mean EC50 (ng/ml), proliferation of GH-R4 cells (MTS); T148C-lotA was found to be 0.5 ng/mL and the Mean EC50 (ng/ml), proliferation of GH-R4 cells (MTS); T148C-lotB worked out at 2.5 ng/mL.

The substance “wild-type rhGH (secreted from E. coli with the stII signal sequence) (from UniProt P01241 27-217) (ligand)” displayed a Mean EC50 (ng/ml), proliferation of GH-R4 cells (MTS) of 0.8 ng/mL.
